For test [1], the target named is T1, CCL3 (Homo sapiens, UniProt P10147, biotin (sulfo-NHS-LC-biotin) in the Biacore and streptavidin-plate ELISA experiments; not biotinylated where coated directly).
T1 construct: CCL3, human, recombinant chemokine from PeproTech
The test is described as follows: SPR; Biacore 2000; biotinylated CCL3, CCL4, CCL5 immobilised on a streptavidin chip (~100 RU); Fabs flowed over at 500 pM to 1 µM; regeneration 10 mM glycine pH 1.5; triplicate; 1:1 Langmuir fit, murine and humanized 18V4F Fabs fit to a steady state model. As to conditions: both partners purified.

Test [2] addresses T2, CCL4 (Homo sapiens, UniProt P13236, biotin (sulfo-NHS-LC-biotin) in the Biacore and streptavidin-plate ELISA experiments; not biotinylated where coated directly).
T2 construct: CCL4, human, recombinant chemokine from PeproTech
Described as above. As to conditions: both partners purified.

Test [3] deals with T1, CCL3. The test is described as follows: cell-based or functional assay.
For test [4], the target named is T2, CCL4. Description: cell-based or functional assay.
The target of test [5] is T3, CCL5 (Homo sapiens, UniProt P13501, biotin (sulfo-NHS-LC-biotin) in the Biacore and streptavidin-plate ELISA experiments; not biotinylated where coated directly). The test is described as follows: cell-based or functional assay.
T3 sequence (P13501 24-91): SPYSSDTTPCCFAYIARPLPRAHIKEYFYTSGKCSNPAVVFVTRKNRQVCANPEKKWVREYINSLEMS
In test [6] the target is T3, CCL5. Description: SPR; Biacore 2000; biotinylated CCL3, CCL4, CCL5 immobilised on a streptavidin chip (~100 RU); Fabs flowed over at 500 pM to 1 µM; regeneration 10 mM glycine pH 1.5; triplicate; 1:1 Langmuir fit, murine and humanized 18V4F Fabs fit to a steady state model. As to conditions: both partners purified. For orientation: Surface plasmon resonance follows binding to a sensor surface in real time, without labels.

T1 sequence (P10147 24-92): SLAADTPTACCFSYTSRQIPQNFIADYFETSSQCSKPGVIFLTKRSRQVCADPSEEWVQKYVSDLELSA
T2 sequence (P13236 24-92): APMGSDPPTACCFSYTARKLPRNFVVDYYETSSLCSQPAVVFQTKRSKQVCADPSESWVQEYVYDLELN

B1: 18V4F Fab variant d7 (Fab, V domains shown)
VH: EVQLVESGGGLVQPGGSLRLSCAASGFSLYDEGAHWVRQAPGKGLEWVGVIWPGGGTNYNSALMSRFTISKDNSKNTVYLQMNSLRAEDTAVYYCARGPLITTEVSMDYWGQGTLVTVSS
VL: SAEVTQPPSVSVSPGQTARITCSSNTGAVTTSNYANWVQQKPGQAPVGLIGGTNERPSGIPERFSGSSSGNTATLTISGAQAEDEADYYCALWYSNHWVFGGGTKLTVL
In test [1], B1 yielded a Kd of 35 nM, a koff of 0.0033 s⁻¹ and a kon of 110000 M⁻¹ s⁻¹. Moreover, in test [2], the affinity, expressed as Kd, was 7.3 nM; the koff was found to be 0.0004 s⁻¹; the kon was determined as 60000 M⁻¹ s⁻¹. Also, the “IC50 of inhibition of chemotaxis of CCR5-transfected Ba/F3 cells to 5 ng/mL CCL3 (blocks CCL3 with CCR5)” value (“IC50 of inhibition … (blocks CCL3 with CCR5)” for short) in test [3] stood at 18 nM. Besides, in test [4], the “IC50 of inhibition of chemotaxis of CCR5-transfected Ba/F3 cells to 5 ng/mL CCL4 (blocks CCL4 with CCR5)” value (shortened to “IC50 of inhibition … (blocks CCL4 with CCR5)”) is 0.6 nM. Also, the “IC50 of inhibition of chemotaxis of CCR5-transfected Ba/F3 cells to 5 ng/mL CCL5 (blocks CCL5 with CCR5)” value (“IC50 of inhibition … (blocks CCL5 with CCR5)” below) in test [5] was determined as 4.1 nM.

B2: 18V4F Fab variant d5 (Fab, V domains shown)
VH: EVQLVESGGGLVQPGGSLRLSCAASGFSLTGYAMHWVRQAPGKGLEWVGVIWPGGGTNYNSALMSRFTISKDNSKNTVYLQMNSLRAEDTAVYYCARGPLITTEVSMDYWGQGTLVTVSS
VL: SAEVTQPPSVSVSPGQTARITCSSNTPLRPYRNYANWVQQKPGQAPVGLIGGTNERPSGIPERFSGSSSGNTATLTISGAQAEDEADYYCALWYSNHWVFGGGTKLTVL
Regarding B2, in test [1], the affinity, expressed as Kd, was 30.4 nM; the koff is 0.0031 s⁻¹; the kon is 100000 M⁻¹ s⁻¹. In test [2], this molecule displayed a Kd of 15.9 nM, an off-rate constant (koff) of 0.0012 s⁻¹ and a kon of 70000 M⁻¹ s⁻¹. In test [6], this molecule showed a Kd of 5.5 nM, a dissociation rate constant (koff) of 0.0014 s⁻¹ and a kon of 340000 M⁻¹ s⁻¹. Moreover, the “IC50 of inhibition … (blocks CCL3 with CCR5)” value in test [3] was 187 nM. Moreover, in test [4], the “IC50 of inhibition … (blocks CCL4 with CCR5)” value was 49 nM. Besides, the “IC50 of inhibition … (blocks CCL5 with CCR5)” value in test [5] stood at 105 nM.

B3: d5d7 Fab (Fab, V domains shown)
VH: EVQLVESGGGLVQPGGSLRLSCAASGFSLYDEGAHWVRQAPGKGLEWVGVIWPGGGTNYNSALMSRFTISKDNSKNTVYLQMNSLRAEDTAVYYCARGPLITTEVSMDYWGQGTLVTVSS
VL: SAEVTQPPSVSVSPGQTARITCSSNTPLRPYRNYANWVQQKPGQAPVGLIGGTNERPSGIPERFSGSSSGNTATLTISGAQAEDEADYYCALWYSNHWVFGGGTKLTVL
notes: also called 18V4F Fab variant d5d7; not shown: His6, C-terminal, kept
For B3, in test [1], the Kd was 8.5 nM, the koff was 0.0054 s⁻¹ and the kon is 80000 M⁻¹ s⁻¹. In test [2], this molecule registered a Kd of 1.8 nM, a koff of 0.0036 s⁻¹ and a kon of 380000 M⁻¹ s⁻¹. For the same molecule, the “IC50 of inhibition … (blocks CCL3 with CCR5)” value in test [3] was 1 nM. Further, in test [4], the “IC50 of inhibition … (blocks CCL4 with CCR5)” value amounted to 0.2 nM. For the same molecule, in test [5], the “IC50 of inhibition … (blocks CCL5 with CCR5)” value was 0.9 nM.

B4: humanized 18V4F Fab (Fab, V domains shown)
VH: EVQLVESGGGLVQPGGSLRLSCAASGFSLTGYAMHWVRQAPGKGLEWVGVIWPGGGTNYNSALMSRFTISKDNSKNTVYLQMNSLRAEDTAVYYCARGPLITTEVSMDYWGQGTLVTVSS
VL: SAEVTQPPSVSVSPGQTARITCSSNTGAVTTSNYANWVQQKPGQAPVGLIGGTNERPSGIPERFSGSSSGNTATLTISGAQAEDEADYYCALWYSNHWVFGGGTKLTVL
notes: also called Hu-18V4F
In the case of B4, the Kd in test [1] is 272 nM; in test [2], 251 nM; in test [6], 187 nM. Further, the “IC50 of inhibition … (blocks CCL3 with CCR5)” value in test [3] was more than 1000 nM. Further, in test [4], the “IC50 of inhibition … (blocks CCL4 with CCR5)” value was more than 1000 nM. In addition, the “IC50 of inhibition … (blocks CCL5 with CCR5)” value in test [5] was more than 1000 nM.

B5: 18V4F hybridoma antibody (murine IgG2a/lambda) (antibody, V domains shown)
VH: QVQLKESGPGLVAPSQSLSITCTVSGFSLTGYGIHWVRQPPGKGLEWLGVIWPGGGTNYNSALMSRLSISKDNSKSQVFLKMNSLQTDDTAMYYCARGPLITTEVSMDYWGQGTSVTVSS
VL: QAVVTQESALTTSPGETVTLTCRSNTGAVTTSNYANWVQEKPDHLFTGLIGGTNNRAPGVPARFSGSLIGDKAALTITGAQTEDEAIYFCALWYSNHWVFGGGTKLTVL
B5: the “IC50 of inhibition … (blocks CCL3 with CCR5)” value in test [3] stood at 196 nM. For the same molecule, in test [4], the “IC50 of inhibition … (blocks CCL4 with CCR5)” value was 185 nM. In test [5], the “IC50 of inhibition … (blocks CCL5 with CCR5)” value is more than 1000 nM.

B6: murine 18V4F Fab (Fab, V domains shown)
VH: QVQLKESGPGLVAPSQSLSITCTVSGFSLTGYGIHWVRQPPGKGLEWLGVIWPGGGTNYNSALMSRLSISKDNSKSQVFLKMNSLQTDDTAMYYCARGPLITTEVSMDYWGQGTSVTVSS
VL: QAVVTQESALTTSPGETVTLTCRSNTGAVTTSNYANWVQEKPDHLFTGLIGGTNNRAPGVPARFSGSLIGDKAALTITGAQTEDEAIYFCALWYSNHWVFGGGTKLTVL
notes: also called Mu-18V4F
B6: the Kd was 209 nM in test [1], 103 nM in test [2] and 50.3 nM in test [6].

One may read the Kd as the constant that tells how readily two partners part at equilibrium. Low readings indicate higher affinity, high ones lower affinity. One may read the koff as the first-order rate constant of dissociation. The low end stands for a long-lived complex, the high end for a short-lived complex. Usually kon stands for the second-order rate constant of association. Low readings indicate slower complex formation, high ones faster complex formation.

Values taken from article PMC3422223 (PLoS ONE, 2012).
